Measurements published in publication PMC8231982.

Biological target: influenza hemagglutinin full length protein, A/New-York/55/04 (H3N2) (influenza A virus A/New-York/55/04 (H3N2))
Assay: SPR

Chain of wild-type cyanovirin-N (WT CV–N) (P81180 whole entry): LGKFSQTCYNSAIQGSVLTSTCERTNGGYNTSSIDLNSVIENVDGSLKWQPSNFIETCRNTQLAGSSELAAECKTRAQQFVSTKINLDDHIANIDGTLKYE

“wild-type cyanovirin-N (WT CV–N) (from UniProt P81180 1-101) (natural protein)” showed a Kd of 5.7 nM.
